The target of series [1] is BSA (bovine serum albumin) (UniProt P02769 P02769:25-607). The experiment in a line: filter; BSA 140 nM used as reference (1 fold). As to the method:
(§1) Human TNF-α proteins (0, 8.75, 17.5, 35, 70, 140 nM, R&D Systems) were incubated with aptTNF-α (50 nM) at 37° C. for 1 h. In addition, mouse TNF-α proteins (140 nM) or BSA (140 nM) were incubated with aptTNF-α (50 nM) or aptTNF-α-PEG (50 nM) as well. The protein-bound aptamers were then collected by nitrocellulose filter and eluted by heating. The amount of the eluted aptamers was quantified by quantitative PCR (LightCycler 480 system, Roche Applied Science, Mannheim, Germany) The dissociated constant (Kd) was calculated by GraphPad Prism 5 (GraphPad Software, San Diego, Calif.), using the equation Y=Amax×X/(Kd+X). The relative amounts of protein-binding aptamers (human TNF-α proteins and mouse TNF-α proteins) were represented as fold changes, using BSA as the reference (1 fold).

Another series deals with TNF-alpha (Mus musculus, UniProt P06804 P06804:80-235). The experiment in a line: filter; 140 nM protein, 50 nM aptamer; fold over BSA, value only in figure. The note with it: chain copies: 3 (inferred). How it is done: as §1
TNF-alpha, sequence (P06804 80-235, one chain of several): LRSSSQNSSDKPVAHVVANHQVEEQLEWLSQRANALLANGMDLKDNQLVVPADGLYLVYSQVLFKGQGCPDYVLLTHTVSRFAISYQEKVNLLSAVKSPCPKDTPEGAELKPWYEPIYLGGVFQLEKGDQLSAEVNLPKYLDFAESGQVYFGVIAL

BSA (bovine serum albumin), sequence (P02769 25-607, one chain of several): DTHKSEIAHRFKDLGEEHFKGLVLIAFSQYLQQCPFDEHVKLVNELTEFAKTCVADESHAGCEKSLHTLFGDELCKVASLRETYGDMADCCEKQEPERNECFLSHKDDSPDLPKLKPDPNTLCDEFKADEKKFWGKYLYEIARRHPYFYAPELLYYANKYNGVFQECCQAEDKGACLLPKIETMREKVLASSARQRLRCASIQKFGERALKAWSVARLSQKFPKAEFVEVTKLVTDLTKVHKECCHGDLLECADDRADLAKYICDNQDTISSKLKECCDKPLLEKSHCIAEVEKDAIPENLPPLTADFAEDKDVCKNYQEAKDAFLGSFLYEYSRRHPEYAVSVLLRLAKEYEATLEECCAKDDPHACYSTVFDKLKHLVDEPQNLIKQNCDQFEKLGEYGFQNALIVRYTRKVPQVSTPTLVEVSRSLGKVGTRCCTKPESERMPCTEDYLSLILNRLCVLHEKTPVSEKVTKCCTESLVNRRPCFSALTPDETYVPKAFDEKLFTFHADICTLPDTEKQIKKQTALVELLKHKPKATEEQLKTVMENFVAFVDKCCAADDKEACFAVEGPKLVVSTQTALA

For the molecule GCGCCACTACAGGGGAGCTGCCATTCGAATAGGTGGGCCGC (ssDNA) [aptTNF-alpha], the binding signal in series [1] is 1 fold. The binding result in the series with TNF-alpha was “binds”.
In turn, GCGCCACTACAGGGGAGCTGCCATTCGAATAGGTGGGCCGC (ssDNA, two copies of amine-labeled SEQ ID NO: 1 linked by 20 kDa PEG (NHS-PEG-NHS)) [aptTNF-alpha-PEG (dimer)] came in with a binding signal in series [1] of 1 fold. Also, in the series with TNF-alpha, the binding result was “binds”.
